Several values for one entry are separate records, joined by “and”; a condition that tells them apart may be missing. Equal values may be shown once.
Biological target: Tailless ΔHoc T4 phage capsids (bacteriophage T4) (UniProt P19896)
Assay: native gel or EMSA; Mal–Hoc mixed with ΔHoc T4 capsids at a series of molar ratios; 22°C for 2 h or overnight (16 h) in PBS with 10 mM MgCl2; 1% agarose, 100 V for 2 h, 1x Tris–Acetate–EDTA; GelCode blue protein stain

- stoichiometry N (Mal–Hoc per capsid): 60 to 120 (2×) and 90
Substance: Maltase–SC–St–Hoc fusion (complex)

— article PMC7327620
